Results on 3 proteins are retold here after FireProtDB.

Values joined by “and” are separate entries in the source; they are usually repeats but may differ in a detail not shown here. Equal values may be shown once.

The conditions of this data set: whole UniProt chain shown.
Setting [1] is: Bos taurus, pH 2, 35 °C, Urea, NMR, Unknown, reversible: no.
Setting [2] is: Bos taurus, pH 2.2, 25 °C, GdnHCl, CD, Sodium cacodylate 50 mM, NaCl 50 mM.
Setting [3] is: Bos taurus, pH 3, Thermal, DSC, Tris-HCl 10 mM.
[4] abbreviates: Bos taurus, pH 4.2, Thermal, DSC, Tris-HCl 10 mM.
[5] abbreviates: Bos taurus, pH 5.2, Thermal, DSC, Tris-HCl 10 mM.
Where [6] appears, read: Bos taurus, pH 6.2, Thermal, DSC, citrate 10 mM.
[7] abbreviates: Bos taurus, pH 6.3, 25 °C, GdnHCl, CD, Sodium acetate 100 mM, CaCl2 2 mM, transition: 3.
The mark [8] stands for this setting: Bos taurus, pH 6.3, 25 °C, GdnHCl, CD, Sodium acetate 100 mM, CaCl2 2 mM.
Setting [9] is: Bos taurus, pH 6.3, 25 °C, Thermal, CD, imidazole-HCl 40 mM.
Setting [10] is: Bos taurus, pH 7, 4.5 °C, GdnHCl, CD, cacodylate 50 mM, NaCl 0.1 M.
Setting [11] is: Bos taurus, pH 7, 25 °C, GdnHCl, CD, sodium cacodylate 50 mM, NaCl 50 mM.
Setting [12] is: Bos taurus, pH 7, Thermal, CD, C2H6AsNaO2 50 mM, NaCl 50 mM.
Where [13] appears, read: Bos taurus, pH 7.5, Thermal, DSC, Tris-HCl 10 mM, CaCl2 260 micro M.
[14] abbreviates: Bos taurus, pH 8, 25 °C, GdnHCl, CD, Tris-HCl 20 mM.
The mark [15] stands for this setting: Bos taurus, pH 8, 25 °C, Thermal, CD, borate 10 mM, NaCl 0.01-1.0 M.
The mark [16] stands for this setting: Bos taurus, pH 8, 25 °C, Thermal, DSC, Tris-HCl 10 mM, reversible: yes.
[17] abbreviates: Bos taurus, pH 8, Thermal, DSC, Tris-HCl 5 mM.
[18] abbreviates: Bos taurus, pH 8, Thermal, DSC, Tris-HCl 10mM, reversible: yes.
[19] abbreviates: Bos taurus, pH 8, Thermal, DSC, borate 10 mM, NaCl 0.2 M, reversible: yes (>95%).
Setting [20] is: Bos taurus, pH 6, Thermal, DSC, Sodium phosphate 50 mM, NaCl 200 mM, reversible: yes.
The mark [21] stands for this setting: Comamonas testosteroni, pH 7, 25 °C, Urea, Fluorescence, phosphate 25 mM, reversible: yes.

B1: Alpha-lactalbumin wild type, P00711 (protein)
chain: MMSFVSLLLVGILFHATQAEQLTKCEVFRELKDLKGYGGVSLPEWVCTTFHTSGYDTQAIVQNNDSTEYGLFQINNKIWCKDDQNPHSSNICNISCDKFLDDDLTDDIMCVKKILDKVGINYWLAHKALCSEKLDQWLCEKL
What is called Tm is the temperature at the midpoint of the melting transition. Consider B1, for which the denaturant m value is, setting by setting: under setting [1], 0.33 kcal/mol/M; under setting [2], 0.76 kcal/mol/M; under setting [7], 1.85 kcal/mol/M; under setting [8], 2.6 kcal/mol/M; under setting [10], 2.27 kcal/mol/M; (Bos taurus, pH 7, 25 °C, GdnHCl, CD, sodium cacodylate 50 mM, NaCl 50 mM, transition: 3) 1.79 kcal/mol/M and 0.64 kcal/mol/M. In addition, the denaturant m value reads like this: under setting [11], 2.43 kcal/mol/M; under setting [14], 0.84 kcal/mol/M. Also, the “denaturant midpoint (higher = more stable)” value by setting is: under setting [1], 4.45 M; under setting [2], 3.16 M; under setting [14], 2.46 M. Further, the unfolding free energy runs as follows: under setting [1], 1.46 kcal/mol; under setting [2], 2.41 kcal/mol; under setting [7], 4.61 kcal/mol; under setting [8], 6.21 kcal/mol; (Bos taurus, pH 6.65, 25 °C, GdnHCl, CD, potassium phosphate 0.01-0.03 M, KCl 0.1 M, reversible: yes) 6.5 kcal/mol; under setting [10], 3.66 kcal/mol. Moreover, the unfolding free energy is 7.29 kcal/mol under setting [11]; 2.07 kcal/mol under setting [14]; 5.02 kcal/mol and 3.59 kcal/mol under setting [16]. The Tm by setting is: under setting [3], 29.6 °C; under setting [4], 56.9 °C; under setting [5], 62.8 °C; under setting [6], 51.2 °C; under setting [12], 25 °C; under setting [13], 64.2 °C. For the same protein, the Tm under setting [17] stood at 28.2 °C, the Tm under setting [18] was 55.2 °C and the Tm under setting [19] turned out to be 71.3 °C. The “heat capacity change of unfolding” value runs as follows: under setting [3], 0.93 kcal/mol/K; under setting [4], 1.17 kcal/mol/K; under setting [5], 1.26 kcal/mol/K; under setting [6], 1.61 kcal/mol/K; under setting [9], 0.96 kcal/mol/K; (Bos taurus, pH 6.8, 25 °C, Thermal, CD, phosphate 10-20 mM, KCl 0.1 M) 1.49 kcal/mol/K. For the same protein, the “heat capacity change of unfolding” value amounted to 1.1 kcal/mol/K under setting [12]; 1.18 kcal/mol/K under setting [15]; 1.03 kcal/mol/K under setting [16]; 1.48 kcal/mol/K under setting [17]; 1.6 kcal/mol/K under setting [19]. Further, the “unfolding enthalpy (calorimetric)” value is, setting by setting: under setting [3], 36.1 kcal/mol; under setting [4], 64.5 kcal/mol; under setting [5], 71.9 kcal/mol; under setting [6], 59.1 kcal/mol; under setting [13], 72.2 kcal/mol; under setting [17], 35.2 kcal/mol. For the same protein, the “unfolding enthalpy (calorimetric)” value by setting is: under setting [18], 55 kcal/mol; under setting [19], 80 kcal/mol. In addition, the “unfolding enthalpy (van 't Hoff)” value amounted to 61.5 kcal/mol under setting [6]; 31.1 kcal/mol under setting [9]; 38 kcal/mol under setting [12]; 44.7 kcal/mol under setting [15]; 84 kcal/mol under setting [19].

B2: Ribonuclease pancreatic wild type, P61823 (protein)
chain: MALKSLVLLSLLVLVLLLVRVQPSLGKETAAAKFERQHMDSSTSAASSSNYCNQMMKSRNLTKDRCKPVNTFVHESLADVQAVCSQKNVACKNGQTNCYQSYSTMSITDCRETGSSKYPNCAYKTTQANKHIIVACEGNPYVPVHFDASV
Regarding B2, under setting [20], the Tm came out at 47.7 °C, the “heat capacity change of unfolding” value turned out to be 2 kcal/mol/K and the “unfolding enthalpy (calorimetric)” value was found to be 107 kcal/mol.

B3: Steroid Delta-isomerase wild type, P00947 (protein)
chain: MNTPEHMTAVVQRYVAALNAGDLDGIVALFADDATVEDPVGSEPRSGTAAIREFYANSLKLPLAVELTQEVRAVANEAAFAFTVSFEYQGRKTVVAPIDHFRFNGAGKVVSMRALFGEKNIHAGA
Consider B3, for which, under setting [21], the denaturant m value is 4 kcal/mol/M and the unfolding free energy was 22 kcal/mol.
